From the nanobody polyreactivity screen of Harvey et al. (2022)

Assay: yeast display, Sf9 membrane polyspecificity reagent, FACS + sequencing; frameworks hold sequencing errors
Summary of the method: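 Genes from sorted yeast were amplified by colony PCR, read by MiSeq 2 × 250 sequencing and filtered on CDR length. These cells carried a synthetic nanobody library in Saccharomyces cerevisiae BJ5465 and were sorted by FACS into low and high (top ~1%) gates on anti-HA and streptavidin fluorescence. Polyreactivity is labelled according to the gate of origin.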

Sequence	polyreactivity (PSR sort gate)
QVQLVESGGGLVQEGGSLRLSCAASGSTFIDYAMGWYRQAPGKERELVAAITNGGNTKYADSVKGRFTISRDNAKNTVYLQMHSLKPEETAVYYGAREPSIFTPSYDYWGQGTQVTVSS	low polyreactivity
QVQLLESGGGLVQAGGSLRLSCAASGITLYRYTMGWYRQAPGKEREFVAAISRSGGSTYYADSVKGRFTLSRDNAKNTVYFQMKSLKPDDTAVYYCAAPWYEKTTRPYGSWGQGTQVTVSS	high polyreactivity
QVQLVESGGGLVQAGGSLRLSCAASGFTFGYNAMGWYRQAPGKEREFVAAISISTGRTFYADSVKGRFTISRDNAKNTVYLQMNSLKPEDTAFYYCAARGYYPTNVGKYNYWGQGTQVTVSS	high polyreactivity
QVQLVESGGGLVQAGGSLRLSCAASGSTFKSYVMGWYRQAPGKERELVAAISSGDSTYYADSVKGRFTISRDNAKNTVYLQMNSLKPEDTAVYYCNADVSLDDYDYWGQGTQVTVSS	low polyreactivity
QVQLVESGGGLVQAGGSLRLSSAASGFIFEPYAMGWYRQAPGKERELVAAIRWSDGSTFYADSVKGRFTISRDTAKNTVYLQMNSLKPEDSAVYYCNAVYEHRRVGWVTIDYGYWGQGTQVTVSS	low polyreactivity
QVQLLESGGGLVPSRGSLRLSCAASGFTFAHYAMGWYRQAPGKERELVAAISGSGSSTYYADSVKGRFTISRDNAKNNVYLQMNSLKPEDTADYYCNVRWYFLYDYWGQGTQVTVSS	low polyreactivity
QVQLVESGGGLDQAGGSLRLSCAASGRILRYYTMGWYRQAPGKERELVAAISRSGGGTYYADSVKGRFTISRDNAKNTVYLQMNSLKPEDTAVYYCAKQTHQKAYDYWGQGTQVTVSS	high polyreactivity
QVQLVESGGGLVQAGGSLRLSCAASGRILYYYAMGWYRQAPGKERELVAAITWGGGSTYYADSVKGRFTISRDNAKNTVYLQMNSLKPEDTAVYYCNRTFRSRLPTSRGYDYWGQGTQVTVSS	low polyreactivity
QVQLEESGGGLVQAGASLRLSCAASGRTFPRYAMGWSRQAPGKERELVAAITSSGGSTNYADSVKGRFTISRENATNSVYLQMYSLKPEDTAVYYCNARFPTQYILWSSSPYGYWGQGTQVTVSS	low polyreactivity
QVQLVESGGGLVQAGGSLRLSCAASGSTFPWNAMGWYRQAPGKERELVAAISSGGSTNYADSVKGRFTISRDNAKNTVYLQMNSLKPEDTAVYYCNAYYWSDSRGKYDYWGQGTQVTVSS	low polyreactivity
QVQLVESGGGLVQAGGSLRLSCAASGSTLVGNTMGWYRQSPGKERELVAAITGVGSTNYADSVKGRFTISRDNAKNTVYLQMNSLKPEDTAVYYCAAQYSYTYIVSYLYDMDYWGQGTQVTVSS	low polyreactivity
QVQLVESGGGLVQAGGSLRLSCAASGRIFQYNAMGWYRQAPGKERELVAAITGGGSTYYADSVKGRFTISRDNAKNTVYLQMNSLKPEDTAVYYCNKAWSCSWLLTYGYWGQGTQVTVSS	high polyreactivity
QVQLVESGGGLVQAGGSLRLSCAASGSIFPWYAMGWYRQAPGKERELVAAITISGGSTHYADSVKGRFTISRDNAKNTVYLQMNRLKPEDTAVYYCATPRYPSYDYWGQGTQVTVSS	low polyreactivity
QVQLVESGGGLVQAGGSLRLSCAASGSIFSAYAIGWYRQAPGKERELDAAITKSSVTYYADSVKGRFTISRDNAKNSVYLHMNSLKPEDTAVYYCAAASGGTVVGEVDYWGQGTQVTVSS	low polyreactivity
QVKLVESGGGLVQAGGSLRLSCAASGFTFDKYAMGWSRPEPGKERELVATISRRGGSTYYADSVKGRFTISRDNAKNTVYLQMNSLKPEDTAVYYCAKVRYYYSPYREFDYCGQGTQVTVSS	high polyreactivity
QVQLVESGGGLVQAGGSHRLSCAASGSIFNLYTMGWYIQAPGKERELVAAIRWSGGRTYYADSVKGRFTISRDNAKNTVYLQMNSLKAEDTAVYYCAVRRVVARYDHWGQGTQVTVSS	low polyreactivity
